# How the values were obtained:
# [1] = tested on: αv-defective melanoma cells M21L; assay: Cellular binding of nanoparticulate formulations, flow cytometry (FACS); assay type: cell-based; conditions: 2 ng/μl, 4 h at 37° C.
# Method: (§1) Cellular binding: αvβ3 integrin-positive melanoma cells M21 and αv-negative melanoma cells M21L are incubated with DI17E6-coupled nanoparticles (NP-DI17E6) or nanoparticles coupled to an unspecific control mAb IgG (NP-IgG). […] Both nanoparticle preparations show low binding to M21L cells (FIG. 4D).
# (§2) FIG. 4: Cellular binding of unloaded and doxorubicin loaded nanoparticulate formulations. αvβ3 integrin positive melanoma cells M21 (A and C) and αv-defective melanoma cells M21L (B and D) were treated with 2 ng/μl of the different unloaded (A and B) or doxorubicin loaded (C and D) nanoparticulate formulations for 4 h at 37° C. (concentrations are calculated referred to DI17E6 or equivalent NP amounts). Flow cytometry (FACS) analysis was performed to quantify their cellular binding. The data is shown as histogram of the FL1-H-channel (autofluorescence of the nanoparticles). Green: NP-DI17E6 and NP-Dox-DI17E6 respectively, red: NP-IgG and NP-Dox-IgG respectively, blue: untreated control. […]
# (§3) M21 or M21L cells were cultured in 24-well plates (Greiner, Frickenhausen, Germany) and treated with the different nanoparticle formulations for 4 h at 37° C. […] Control nanoparticles without DI17E6 modification were used in equivalent nanoparticle quantities. […] Nanoparticles could be detected at 488/520 nm.
# [2] = tested on: αvβ3 integrin positive melanoma cells M21; assay: as above; assay type: cell-based; conditions: 2 ng/μl, 4 h at 37° C.
# Method: as §1, §2, §3
# [3] = tested on: αvβ3 integrin positive melanoma cells M21; assay: Cell detachment from vitronectin coated surface; assay type: cell-based; conditions: 4 ng/μl, 4 h at 37° C.
# Method: FIG. 9: Cell detachment from vitronectin coated surface. For cell detachment assay, 96-well ELISA plates were coated with vitronectin and cells were allowed to attach and spread for 1 h. Then, 4 ng/μl of free DI17E6 or the different unloaded or doxorubicin nanoparticulate formulations were added and the plates were incubated for additional 4 h at 37° C. to induce detachment (concentrations are calculated referred to DI17E6 or equivalent NP amounts). Detached cells were removed and remaining attached cells were stained with CyQUANT GR and counted against untreated control as described in the manufacturer's instructions manual. (Internal control of each experiment n=10, one representative experiment out of 9 independent experiments is shown.)
# For cell detachment assays, 96-well ELISA plates were coated with vitronectin as described above. After blocking, cells were allowed to attach and spread for 1 h in cell adhesion medium. Then, 4 ng/μl or 10 ng/μl of either free DI17E6 or the different nanoparticulate formulations (referred to free mAb) were added and the plates were incubated for additional 4 h at 37° C. to induce detachment. Subsequently, plates were washed and processed as for cell adhesion assay. Specific inhibition of attachment or induction of detachment were determined relative to vitronectin-coated surfaces blocked with BSA.
# [4] = Particle diameter and polydispersity by photon correlation spectroscopy; assay type: physicochemical; conditions: mean ± SD; n = 3; 100% crosslinking
# Method: (§4) Nanoparticles were analyzed with regard to particle diameter and polydispersity by photon correlation spectroscopy (PCS) using a Malvern Zetasizer 3000HSA (Malvern Instruments Ltd., Malvern, UK). The zetapotential was measured with the same instrument by Laser Doppler microelectrophoresis. Prior to both measurements the samples were diluted with filtered (0.22 μm) purified water. Particle content was determined by microgravimetry. For this purpose 50.0 μl of the nanoparticle suspension was pipetted into an aluminium weighing dish and dried for 2 h at 80° C. After 30 min of storage in an exsiccator the samples were weighed on a micro balance (Sartorius, Germany).
# [5] = Particle content by microgravimetry; assay type: physicochemical; conditions: mean ± SD; n = 3; 100% crosslinking
# Method: as §4
# [6] = Antibody bound to nanoparticle surface (SEC of supernatant); assay type: physicochemical
# Method: For the thiolation step of the antibodies, DI17E6 or IgG were dissolved in phosphate buffer pH 8.0 at a concentration of 1.0 mg/ml. For the introduction of thiol groups DI17E6 or IgG, respectively, were incubated with a 50 fold molar excess of 2-iminothiolane solution (c=1.14 mg/ml; 40.2 μl) for 2 h as previously described by Steinhauser et al. (2006). The antibodies were purified by size exclusion chromatography (SEC, D-Salt™ Dextran Desalting column). The resulting solutions contained thiolated antibody (DI17E6 or IgG, respectively) at a concentration of about 500 μg/ml. For the coupling reaction 1.0 ml of the sulfhydryl-reactive nanoparticle suspension was incubated with 1.0 ml of the thiolated DI17E6 or IgG, respectively, to achieve a covalent linkage between antibody and the nanoparticle system. For the preparation of samples with adsorptively attached antibody, 1.0 ml of the mPEG5000-SPA modified nanoparticles were incubated with 1.0 ml of thiolated DI17E6 or IgG, respectively. […] To determine unbound antibody the resulting supernatants were collected and analyzed by size exclusion chromatography (SEC) as described above. The amount of antibody bound to the nanoparticle surface was calculated as difference between the amount of antibody obtained after thiolation and purification and the amount of antibody determined in the supernatant obtained after the conjugation step.
# [7] = tested on: αvβ3-positive M21 melanoma cells; assay: MTT cell viability assay; conditions: MTT, reduce cell viability by 50%, M21 cells
# Method: Cell viability was assessed using the 3-(4,5-dimethylthiazol-2-yl)-2,5-diphenyltetrazolium bromide (MTT) dye reduction assay [27] modified as described before [28].
substance,measurement,setting,value
NP-Dox-DI17E6,Cellular binding to M21L cells,[1],low binding
same,Cellular binding to M21 cells,[2],high binding
same,Cell detachment from vitronectin coated surfaces,[3],same detachment efficiency
same,Particle diameter,[4],404.9 ± 27.0 nm
same,Polydispersity,[4],0.040 ± 0.045
same,Particle content,[5],14.4 ± 1.2 mg/mL
same,Covalent linkage of antibody to the particle surface,[6]; covalent linkage,11-20 μg antibody/mg nanoparticle
same,Antibody binding efficiency,"[6]; mean ± SD, n = 3, antibody per mg nanoparticle",15.84 ± 4.07 µg/mg
same,IC-50 M21,[7],8.0 ± 0.2 ng/mL

# From US20120263739A1, “ANTI INTEGRIN ANTIBODIES LINKED TO NANOPARTICLES LOADED WITH CHEMOTHERAPEUTIC AGENTS” (MERCK PATENT GMBH, priority 2009, published 2012)
